Here are results for 3 molecules from article PMC12661985, “USP25 deubiquitinates cytosolic METTL3 to impede glioma proliferation via an m6A-independent pathway” (iScience, 2025).

The target of assay [1] is T1, His-USP25 (human, UniProt Q9UHP3 1-1055).
T1 construct: USP25, human; also called pGEX-4T-1-His-USP25; source: E. coli BL21, purified
T1 sequence (looked up): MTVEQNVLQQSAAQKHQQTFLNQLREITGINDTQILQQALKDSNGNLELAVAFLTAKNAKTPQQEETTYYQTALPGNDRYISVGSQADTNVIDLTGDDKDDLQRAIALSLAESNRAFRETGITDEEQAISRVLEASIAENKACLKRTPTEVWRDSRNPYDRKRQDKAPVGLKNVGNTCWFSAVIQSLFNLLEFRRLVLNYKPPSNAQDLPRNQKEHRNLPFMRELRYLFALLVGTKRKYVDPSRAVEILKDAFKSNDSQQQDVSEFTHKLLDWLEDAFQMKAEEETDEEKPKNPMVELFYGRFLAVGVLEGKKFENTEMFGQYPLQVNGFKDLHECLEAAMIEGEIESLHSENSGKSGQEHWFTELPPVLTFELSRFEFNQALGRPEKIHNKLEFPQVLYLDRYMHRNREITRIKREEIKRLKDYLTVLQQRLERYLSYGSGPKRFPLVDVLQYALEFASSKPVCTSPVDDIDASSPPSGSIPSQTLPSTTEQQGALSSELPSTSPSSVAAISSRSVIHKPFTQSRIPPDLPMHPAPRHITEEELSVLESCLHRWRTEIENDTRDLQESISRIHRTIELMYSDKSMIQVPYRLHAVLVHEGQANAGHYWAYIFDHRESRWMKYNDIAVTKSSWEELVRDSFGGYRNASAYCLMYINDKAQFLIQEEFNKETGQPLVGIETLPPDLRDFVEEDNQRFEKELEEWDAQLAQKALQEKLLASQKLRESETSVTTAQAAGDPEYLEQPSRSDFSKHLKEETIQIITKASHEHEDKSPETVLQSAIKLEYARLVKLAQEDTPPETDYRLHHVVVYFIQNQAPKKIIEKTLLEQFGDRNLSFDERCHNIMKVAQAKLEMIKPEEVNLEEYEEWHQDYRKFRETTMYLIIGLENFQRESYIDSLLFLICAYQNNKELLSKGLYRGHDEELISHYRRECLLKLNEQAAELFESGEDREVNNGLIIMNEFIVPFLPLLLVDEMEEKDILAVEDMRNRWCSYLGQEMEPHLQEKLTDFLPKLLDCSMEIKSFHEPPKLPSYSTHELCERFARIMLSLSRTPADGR
As to the kind of experiment: pull-down; about 10 ug GST fusion protein on glutathione Sepharose incubated with recombinant His-tagged protein, 2 h at 4 C, six washes with NETN buffer; blot with His antibodies. The settings on record: both partners purified.

Assay [2] deals with T2, His-METTL3 (human, UniProt Q86U44 1-580).
T2 construct: METTL3, human; also called pGEX-4T-1-His-METTL3; source: E. coli BL21, purified
T2 sequence (Q86U44 whole entry): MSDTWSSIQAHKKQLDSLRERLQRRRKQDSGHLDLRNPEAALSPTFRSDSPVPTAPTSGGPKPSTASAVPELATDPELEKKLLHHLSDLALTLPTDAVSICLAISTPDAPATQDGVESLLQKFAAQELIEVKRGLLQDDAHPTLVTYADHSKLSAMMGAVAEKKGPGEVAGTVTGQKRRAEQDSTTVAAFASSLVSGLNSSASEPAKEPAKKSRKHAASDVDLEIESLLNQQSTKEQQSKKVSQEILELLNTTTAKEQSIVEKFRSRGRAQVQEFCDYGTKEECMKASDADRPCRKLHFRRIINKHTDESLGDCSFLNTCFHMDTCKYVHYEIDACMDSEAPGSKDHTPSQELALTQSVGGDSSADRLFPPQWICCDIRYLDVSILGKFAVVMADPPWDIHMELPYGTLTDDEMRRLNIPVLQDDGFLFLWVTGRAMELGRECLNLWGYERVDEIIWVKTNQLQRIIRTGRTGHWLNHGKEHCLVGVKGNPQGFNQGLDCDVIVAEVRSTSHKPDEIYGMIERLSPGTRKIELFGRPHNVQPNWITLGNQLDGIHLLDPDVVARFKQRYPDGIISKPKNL
The description is as above. The conditions noted are these: both partners purified.

B1: GST-METTL3-425-500 (domain or fragment, human, UniProt Q86U44 425-500, looked up)
chain: DGFLFLWVTGRAMELGRECLNLWGYERVDEIIWVKTNQLQRIIRTGRTGHWLNHGKEHCLVGVKGNPQGFNQGLDC
notes: METTL3, human, Interface loop, residues 425-500; also called Interface loop (aa 425-500) of METTL3; pGEX-4T-1-GST-METTL3-425-500; source: E. coli BL21, purified (glutathione Sepharose)
Regarding B1, in assay [1], the binding result was “binds”.

B2: GST-METTL3-369-424 (domain or fragment, human, UniProt Q86U44 369-424, looked up)
chain: FPPQWICCDIRYLDVSILGKFAVVMADPPWDIHMELPYGTLTDDEMRRLNIPVLQD
notes: METTL3, human, Gate-loop 1; source: E. coli BL21, purified (glutathione Sepharose)
For B2, in assay [1], the binding result is “binds”.

B3: GST-USP25-166-718 (domain or fragment, human, UniProt Q9UHP3 166-718, looked up)
chain: KAPVGLKNVGNTCWFSAVIQSLFNLLEFRRLVLNYKPPSNAQDLPRNQKEHRNLPFMRELRYLFALLVGTKRKYVDPSRAVEILKDAFKSNDSQQQDVSEFTHKLLDWLEDAFQMKAEEETDEEKPKNPMVELFYGRFLAVGVLEGKKFENTEMFGQYPLQVNGFKDLHECLEAAMIEGEIESLHSENSGKSGQEHWFTELPPVLTFELSRFEFNQALGRPEKIHNKLEFPQVLYLDRYMHRNREITRIKREEIKRLKDYLTVLQQRLERYLSYGSGPKRFPLVDVLQYALEFASSKPVCTSPVDDIDASSPPSGSIPSQTLPSTTEQQGALSSELPSTSPSSVAAISSRSVIHKPFTQSRIPPDLPMHPAPRHITEEELSVLESCLHRWRTEIENDTRDLQESISRIHRTIELMYSDKSMIQVPYRLHAVLVHEGQANAGHYWAYIFDHRESRWMKYNDIAVTKSSWEELVRDSFGGYRNASAYCLMYINDKAQFLIQEEFNKETGQPLVGIETLPPDLRDFVEEDNQRFEKELEEWDAQLAQKALQEKLLA
notes: USP25, human, USP domain, residues 166-718; also called USP domain (aa 166-718) of USP25; pGEX-4T-1-GST-USP25-166-718; source: E. coli BL21, purified (glutathione Sepharose)
Regarding B3, the binding result in assay [2] is reported as “binds”.
